The record followed here is patent US20100105875A1 (published 2010).

For assay [1], the target named is T1, fHbp of N. meningitidis strain MC58 (full-length mature factor H binding protein) (Neisseria meningitidis strain MC58, UniProt E6MV22 20-274).
T1 construct: also called MC58 fHbp; protein 741
T1 sequence: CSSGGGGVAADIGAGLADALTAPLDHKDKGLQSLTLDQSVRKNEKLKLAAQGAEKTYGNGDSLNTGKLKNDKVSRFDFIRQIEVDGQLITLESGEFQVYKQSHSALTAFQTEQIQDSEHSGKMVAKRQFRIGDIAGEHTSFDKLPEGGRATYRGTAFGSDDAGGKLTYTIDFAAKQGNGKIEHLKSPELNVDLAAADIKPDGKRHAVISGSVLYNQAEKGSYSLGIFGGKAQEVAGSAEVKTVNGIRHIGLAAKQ
Kind of assay: western blot on cell extracts; FACS on bacteria. Background: A western blot detects proteins with antibodies after separation by electrophoresis.

The target of assay [2] is T2, recombinant fHbp from MC58 with Arg204 changed to histidine (Neisseria meningitidis strain MC58, UniProt E6MV22 27-274).
T2 construct: also called Arg204→His mutant
T2 sequence: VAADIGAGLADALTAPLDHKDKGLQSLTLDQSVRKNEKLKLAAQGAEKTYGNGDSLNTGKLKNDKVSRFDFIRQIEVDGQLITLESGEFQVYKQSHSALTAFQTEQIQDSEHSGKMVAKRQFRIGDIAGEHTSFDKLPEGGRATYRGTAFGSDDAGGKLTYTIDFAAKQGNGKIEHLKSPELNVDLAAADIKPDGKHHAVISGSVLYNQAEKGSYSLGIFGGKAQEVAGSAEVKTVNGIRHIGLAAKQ
Put plainly: western blot of site-directed mutant of recombinant MC58 fHbp.

B1: MAb502 (antibody, V domains shown)
VH: EVQLQESGPGLAKPSQTLSLTCSVTGYSITSDFWNWIRKFPGNKLEYMGYISYSGSTDYNPSLKSRISITRDTSKNQYYLQLNSVTAEDTATYYCARYFGSSYAMDHWGQGTSVTVSS
VL: DIQMTQSPASLSASVGETVTITCRASGNIHNYLAWYQQKQGKSPQLLVYTAKTLAEGVPSRFSGSGSGTQFSLKINSLQPEDFGSYYCQHFWSTPWTFGGGTKLEIKR
notes: also called monoclonal anti-fHbp antibody MAb502
For B1, the binding result in assay [1] was “binds”; in assay [2], “no binding”.
